Measured values from paper PMC3830487, “A DELLA gene, RhGAI1, is a direct target of EIN3 and mediates ethylene-regulated rose petal cell expansion via repressing the expression of RhCesA2”.

Legend:
[1] = biological target: T1, RhEIN3-3 (N-terminal fragment with DNA-binding domain) (rose, UniProt M9XFM8 141-356); assay: competition; mutated competitor vs biotin-labelled N1; EMSA per Wang et al. 2011, LightShift chemiluminescent kit (Pierce); 1 ug recombinant protein, 2 nM biotin-labelled probe; buffer, salt, pH and temperature not; conditions: tags: GST (pGEX-2T), chain copies: 2
T1 sequence: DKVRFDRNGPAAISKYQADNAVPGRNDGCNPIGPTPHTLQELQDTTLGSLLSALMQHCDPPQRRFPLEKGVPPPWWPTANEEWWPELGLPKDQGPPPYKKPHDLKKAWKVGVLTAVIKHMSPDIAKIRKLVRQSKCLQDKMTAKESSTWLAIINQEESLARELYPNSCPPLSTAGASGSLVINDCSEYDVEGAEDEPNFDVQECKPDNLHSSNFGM

[2] = biological target: T2, RhGAI1 (C-terminal fragment with binding domain) (rose, UniProt M9XGL2 238-618); assay: competition; mutated competitor vs biotin-labelled N3; EMSA per Wang et al. 2011, LightShift chemiluminescent kit (Pierce); 1 ug recombinant protein, 2 nM biotin-labelled probe; buffer, salt, pH and temperature not; conditions: tags: GST (pGEX-2T)
T2 sequence: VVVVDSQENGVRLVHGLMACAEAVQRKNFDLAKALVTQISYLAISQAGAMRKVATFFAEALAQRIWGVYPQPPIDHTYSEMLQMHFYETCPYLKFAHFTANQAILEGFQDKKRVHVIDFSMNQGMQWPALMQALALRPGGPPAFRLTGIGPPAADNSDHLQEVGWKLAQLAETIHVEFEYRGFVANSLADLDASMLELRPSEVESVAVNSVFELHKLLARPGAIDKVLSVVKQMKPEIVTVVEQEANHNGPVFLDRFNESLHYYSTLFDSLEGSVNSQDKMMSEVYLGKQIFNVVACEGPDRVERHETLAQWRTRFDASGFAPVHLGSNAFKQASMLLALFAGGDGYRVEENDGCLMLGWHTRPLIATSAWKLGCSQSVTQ

[3] = biological target: T1, RhEIN3-3 (N-terminal fragment with …); assay: EMSA; competed by unlabelled probe; EMSA per Wang et al. 2011, LightShift chemiluminescent kit (Pierce); 1 ug recombinant protein, 2 nM biotin-labelled probe; buffer, salt, pH and temperature not; conditions: tags: GST (pGEX-2T), chain copies: 2, label: biotin, blunt
[4] = biological target: T2, RhGAI1 (C-terminal fragment with …); assay: as above; conditions: tags: GST (pGEX-2T), label: biotin, blunt

B1: proRhGAI1 mutated probe (dsDNA)
DNA 1: CAGTCACGTTTTATACTCAGTAAGAGGTATTAAAATTCTAGAG
DNA 2: CTCTAGAATTTTAATACCTCTTACTGAGTATAAAACGTGACTG
B1: no binding [1].

B2: proRhCesA2 mutated probe (dsDNA)
DNA 1: GCAGAGGGCTGACTCAGTCGGTGGAGATTT
DNA 2: AAATCTCCACCGACTGAGTCAGCCCTCTGC
B2: no binding [2].

B3: proRhGAI1 probe (dsDNA)
DNA 1: CGTTTTATACTAATTCAAAGGTATTAA
DNA 2: TTAATACCTTTGAATTAGTATAAAACG
B3: binds [3].

B4: proRhCesA2 probe (dsDNA)
DNA 1: GCAGAGGGCTAATTTAGTCGGTGGAGAT
DNA 2: ATCTCCACCGACTAAATTAGCCCTCTGC
B4: binds [4].
